Data as given in PMC7533888.

T1: AtARF1-DBD (Arabidopsis thaliana, UniProt Q8L7G0 1-355)
T1 sequence: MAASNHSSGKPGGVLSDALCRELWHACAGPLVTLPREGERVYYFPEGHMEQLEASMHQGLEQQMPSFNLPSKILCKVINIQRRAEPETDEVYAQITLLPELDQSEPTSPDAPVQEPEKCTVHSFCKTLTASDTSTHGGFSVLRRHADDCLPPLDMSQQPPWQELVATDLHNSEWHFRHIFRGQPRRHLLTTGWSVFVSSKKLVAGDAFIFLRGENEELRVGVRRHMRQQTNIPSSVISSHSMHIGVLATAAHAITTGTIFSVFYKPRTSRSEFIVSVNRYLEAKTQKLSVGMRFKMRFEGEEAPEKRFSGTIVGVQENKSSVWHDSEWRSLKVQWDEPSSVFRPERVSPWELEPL

T2: AtARF5-DBD (Arabidopsis thaliana, UniProt P93024 1-390)
T2 sequence: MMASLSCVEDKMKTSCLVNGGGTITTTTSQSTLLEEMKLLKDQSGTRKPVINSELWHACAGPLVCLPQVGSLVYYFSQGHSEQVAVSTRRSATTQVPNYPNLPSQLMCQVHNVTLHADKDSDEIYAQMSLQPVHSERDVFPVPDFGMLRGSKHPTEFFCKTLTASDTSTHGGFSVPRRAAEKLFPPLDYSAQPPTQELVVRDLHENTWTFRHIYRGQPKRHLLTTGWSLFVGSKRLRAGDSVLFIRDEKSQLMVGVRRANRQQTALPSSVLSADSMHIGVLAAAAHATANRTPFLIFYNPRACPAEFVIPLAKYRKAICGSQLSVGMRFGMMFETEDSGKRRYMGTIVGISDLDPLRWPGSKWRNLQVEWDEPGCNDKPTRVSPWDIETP

B1: DR5 (dsDNA)
DNA 1: ACTGCCTTTTGTCGGCCTTTTGTCGGATCCGTGTG
DNA 2: CACACGGATCCGACAAAAGGCCGACAAAAGGCAGT
B2: IR8 (dsDNA)
DNA 1: ACTCTTTTTTGTCGGGGAAAAGGCCGACAATCCGTGTG
DNA 2: CACACGGATTGTCGGCCTTTTCCCCGACAAAAAAGAGT
B3: pTMO5Δ2-IR7 (dsDNA)
DNA 1: TTTTTTTTGGTCGGTTTTTTA
DNA 2: TAAAAAACCGACCAAAAAAAA
B4: pTMO5Δ1-IR7 (dsDNA)
DNA 1: TGGTCTCTGGTCGGTTTTTTA
DNA 2: TAAAAAACCGACCAGAGACCA

Tests used:
[1] = molecular target: T1, AtARF1-DBD; assay: smFRET titration
[2] = molecular target: T2, AtARF5-DBD; assay: smFRET titration
[3] = molecular target: T2, AtARF5-DBD; assay: size-exclusion chromatography

Row | Binder | Kd [1] [nM] | Kd [2] [nM] | binding result [3]
1 | B1 | 570 | 60 | –
2 | B2 | 140 | 9 | –
3 | B3 | – | – | no binding
4 | B4 | – | – | no binding
